{"source": "patent US7531621B1", "about": "“PTH2 receptor selective compounds” (Societe de Conseils de Recherches et d'Applications …, priority 1999, dated 2009)", "origin": "cited, not measured here", "key": {"PTH/PTHrP receptor": {"target": "T1, PTH/PTHrP receptor (Homo sapiens, UniProt Q03431)", "T1 sequence (Q03431 27-593)": "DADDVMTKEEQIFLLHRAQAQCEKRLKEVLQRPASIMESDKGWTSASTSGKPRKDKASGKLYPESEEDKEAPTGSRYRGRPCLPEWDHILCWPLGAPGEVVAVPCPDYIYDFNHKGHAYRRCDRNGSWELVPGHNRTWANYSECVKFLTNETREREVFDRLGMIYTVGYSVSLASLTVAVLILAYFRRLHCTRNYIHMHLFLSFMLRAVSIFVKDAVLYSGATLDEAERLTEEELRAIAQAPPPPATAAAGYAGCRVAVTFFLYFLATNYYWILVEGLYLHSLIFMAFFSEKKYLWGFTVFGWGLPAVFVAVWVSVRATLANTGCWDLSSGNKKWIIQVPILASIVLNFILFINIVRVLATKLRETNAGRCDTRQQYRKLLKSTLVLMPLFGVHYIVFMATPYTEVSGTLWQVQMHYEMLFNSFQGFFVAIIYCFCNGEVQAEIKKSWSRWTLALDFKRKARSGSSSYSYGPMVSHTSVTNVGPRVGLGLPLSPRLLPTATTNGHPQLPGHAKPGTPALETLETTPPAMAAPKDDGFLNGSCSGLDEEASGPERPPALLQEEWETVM", "conditions": "result in words, background"}, "PTH2 receptor": {"target": "PTH2 receptor (Homo sapiens, UniProt P49190)", "sequence (P49190 25-550)": "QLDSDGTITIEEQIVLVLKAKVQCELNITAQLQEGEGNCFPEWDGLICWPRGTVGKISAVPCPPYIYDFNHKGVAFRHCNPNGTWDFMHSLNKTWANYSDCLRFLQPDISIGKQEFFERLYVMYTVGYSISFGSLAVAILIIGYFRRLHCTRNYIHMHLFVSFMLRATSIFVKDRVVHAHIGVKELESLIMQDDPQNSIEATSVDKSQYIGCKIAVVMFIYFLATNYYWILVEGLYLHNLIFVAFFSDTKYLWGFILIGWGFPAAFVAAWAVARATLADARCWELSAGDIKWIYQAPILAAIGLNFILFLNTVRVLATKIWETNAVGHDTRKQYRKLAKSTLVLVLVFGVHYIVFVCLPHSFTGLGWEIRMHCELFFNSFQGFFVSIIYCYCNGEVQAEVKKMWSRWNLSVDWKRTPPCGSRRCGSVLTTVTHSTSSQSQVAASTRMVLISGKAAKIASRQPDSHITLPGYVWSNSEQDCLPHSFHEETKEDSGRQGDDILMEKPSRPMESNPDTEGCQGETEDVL", "conditions": "result in words, background"}}}
{"substance": "Ile^5-PTHrP-(1-34) NH2", "values": [{"measurement": "binding and activation of the PTH/PTHrP receptor", "setting": "PTH/PTHrP receptor", "result": "binds and activates both receptors"}, {"measurement": "activation of the PTH2 receptor", "setting": "PTH2 receptor", "result": "acts as a PTH-2 receptor agonist"}]}
{"substance": "PTH-(1-34)", "values": [{"measurement": "binding and activation of the PTH/PTHrP receptor", "setting": "PTH/PTHrP receptor", "result": "binds and is activated by both"}, {"measurement": "activation of the PTH2 receptor", "setting": "PTH2 receptor", "result": "selectively activated"}]}
{"substance": "PTHrP (7-34)", "values": [{"measurement": "activation of the PTH2 receptor", "setting": "PTH2 receptor", "result": "weakly activate"}]}
